Reference: PMC5289646, “Proline Metabolism is Essential for Trypanosoma brucei brucei Survival in the Tsetse Vector” (PLoS Pathogens, 2017)

What was measured:
[1] = substrate: O=C(O)C1CCC=N1; assay: cells, lysate or membranes; conditions: 1 mM NAD+ (saturating), 20-600 μM P5C/γGS, potassium phosphate pH 7.2, 28°C, racemic substrate in equilibrium with open form, crude homogenate
[2] = substrate: NC(=O)c1ccc[n+]([C@@H]2O[C@H](COP(=O)(O)OP(=O)(O)OC[C@H]3O[C@@H](n4cnc5c(N)ncnc54)[C@H](O)[C@@H]3O)[C@@H](O)[C@H]2O)c1; assay: cells, lysate or membranes; conditions: 600 μM P5C/γGS (saturating), 0.01-2.5 mM NAD+, potassium phosphate pH 7.2, 28°C, crude homogenate, varied: cofactor

B1: TbP5CDH (Trypanosoma brucei brucei TREU927) (protein)
chain: PPAVNERMDSFQPGSDSARGTLEACKRLRCGATDCPIVIGGKEYRTDNAINRMIPSSHQQQVAKGYNATPELAQKAIDTALGAAKEWSQMPFKDRAAIFLHAAHLISTKYRHELRAATMLGQSKNPFQAEIDVIAESCDFLRFSVKYAEELYNQQPISPASGPVWNALDYRPLEGFVSVIAPFNFSAIAANLVACPALMGNVILWKPSPNAVLSNYLLYKVFEEAGLPAGVVNFMPCEPKVMTEVVNSHPELAGVAFTGSTNVFLSINKQIYSRLEEYRNIPRISGETGGKDFHLIHPTADMKMTAALTVRGAFEYQGQKCSATSRIYVPQSRWEELKGYLLELHGKLKMGQPDDFQSFMCAVIDETAFDRNKKYIDIAKADSSAYTIIAGGGCDKSEGWFIQPTIIVAKDPNAQLLREEIFGPILTVHVYDDSKPDFWSEACNLVNNATKYALTGSIFAQDRKAIRDATEKHLRYAAGNYYINDKCTGAVVGQQPFGGARASGSNDKPGSALFLTRWVSARTIKENFDHSAQVSYPHQLPDYVTL
[1]
  Km: 92.7 ± 14 µM
[2]
  Km: 380 ± 40 µM
